The Kd is a measure of binding affinity in units of concentration. A low value points to higher affinity.

The target in experiment [1] is Type 1 IGF receptor (IGF-1R) (human) (UniProt P08069). The experiment in a line: competitive displacement of 125I-labeled IGF-I; IGF-1R (FIG. 9B). Background: In a radioligand displacement assay an active substance lowers the binding of a labelled ligand.
The target is the same in experiment [2]. The experiment in a line: competitive displacement of 125I-Tyr31-human IGF-I; human IGF-1R, Experiment 2.
Experiment [3] has the same target. The experiment in a line: competitive displacement of 125I-Tyr31-human IGF-I; human IGF-1R, Experiment 1.

Type 1 IGF receptor (IGF-1R) (human), sequence (P08069 31-1367 limits assumed): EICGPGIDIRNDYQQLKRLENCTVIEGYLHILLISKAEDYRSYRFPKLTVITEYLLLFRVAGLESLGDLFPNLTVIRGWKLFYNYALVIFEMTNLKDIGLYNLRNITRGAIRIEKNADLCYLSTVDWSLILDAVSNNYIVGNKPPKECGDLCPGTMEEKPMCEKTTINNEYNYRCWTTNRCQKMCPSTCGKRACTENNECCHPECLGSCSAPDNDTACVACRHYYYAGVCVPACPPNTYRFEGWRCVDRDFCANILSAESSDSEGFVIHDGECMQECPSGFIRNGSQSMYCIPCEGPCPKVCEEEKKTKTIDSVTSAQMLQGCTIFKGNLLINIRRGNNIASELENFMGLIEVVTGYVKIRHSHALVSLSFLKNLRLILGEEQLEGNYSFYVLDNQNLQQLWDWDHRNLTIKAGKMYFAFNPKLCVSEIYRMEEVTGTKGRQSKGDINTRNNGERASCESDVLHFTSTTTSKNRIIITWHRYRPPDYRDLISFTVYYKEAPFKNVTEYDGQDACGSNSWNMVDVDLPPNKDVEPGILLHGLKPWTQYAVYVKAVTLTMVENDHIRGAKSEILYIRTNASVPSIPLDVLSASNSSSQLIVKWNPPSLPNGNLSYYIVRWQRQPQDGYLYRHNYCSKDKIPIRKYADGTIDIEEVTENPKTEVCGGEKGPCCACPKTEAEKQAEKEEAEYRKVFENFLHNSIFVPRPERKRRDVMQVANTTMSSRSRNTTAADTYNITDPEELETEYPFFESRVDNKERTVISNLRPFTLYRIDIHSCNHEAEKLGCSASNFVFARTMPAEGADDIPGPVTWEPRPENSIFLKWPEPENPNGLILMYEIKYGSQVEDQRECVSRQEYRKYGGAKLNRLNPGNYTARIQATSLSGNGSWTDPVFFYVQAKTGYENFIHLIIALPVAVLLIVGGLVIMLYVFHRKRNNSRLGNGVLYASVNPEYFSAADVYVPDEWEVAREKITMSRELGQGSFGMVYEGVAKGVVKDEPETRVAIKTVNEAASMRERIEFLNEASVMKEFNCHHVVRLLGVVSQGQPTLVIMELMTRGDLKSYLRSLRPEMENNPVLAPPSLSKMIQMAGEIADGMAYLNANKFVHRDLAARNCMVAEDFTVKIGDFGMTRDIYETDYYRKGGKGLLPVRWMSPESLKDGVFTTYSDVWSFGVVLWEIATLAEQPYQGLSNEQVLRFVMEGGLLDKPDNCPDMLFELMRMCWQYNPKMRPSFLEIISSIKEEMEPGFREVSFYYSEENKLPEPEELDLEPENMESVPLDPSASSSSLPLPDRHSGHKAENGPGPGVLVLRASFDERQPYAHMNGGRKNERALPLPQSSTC

In experiment [1], “4Cl-Phe^B24-KP-insulin (ligand; para-monochloro-phenylalanine (4Cl-Phe) at B24; other documents disagree on this pair)” came in with a fold reduction of cross-binding relative to KP-insulin or wild-type insulin of 3 fold. Turning to “KP-insulin (ligand; other documents disagree on this pair)”, the values for the equilibrium dissociation constant (Kd) in experiment [2] and in experiment [3] were 15.3 nM and 12.6 nM, respectively. For the substance “penta-fluoro-Phe^B24-KP-insulin (ligand; penta-fluoro-phenylalanine (F5-Phe) at B24; other documents disagree on this pair)”, in experiment [3], the dissociation constant Kd was found to be 522 nM.

The values above are taken from patent US20140128319A1.
